Data as given in the supplement of paper PMC10126150.
± gives the standard deviation of the averaged measurements.

Test system: ATP
Assay: switch fluorescence ratio, 500 uM ATP over buffer (Cy3 cluster intensity, sum of 5 cycles each) (fold (ratio)); higher = stronger signal-on switching upon ATP binding; sequences stand for … in TCGTCGGCAGCGTCAGATGTGTATAAGAGACAGTTTTTTTTTTTTTTTTTTTTTTTTT…TC
Details: aptamer strand: ATP DNA aptamer (quencher-CACCTGGGGGAGTATTGCGGAGGAAGG + anchor), 100 nM annealed; ATP concentration: 500 uM
In short: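 The quencher-labelled ATP aptamer, at 100 nM, was annealed to Cy3-labelled switching-strand clusters on a modified Illumina MiSeq flow-cell. The clusters were imaged in selection buffer, then after 15 min with 500 uM ATP at 22 °C, and this buffer/ATP cycle ran five times with NaOH stripping and re-annealing between runs. Per-cluster fluorescence ratios, summed target-cycle over summed buffer-cycle Cy3 intensity, were averaged per switch-domain sequence. Clusters outside 100-1000 RFU were excluded.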
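Note: ATP exposure 15 min at 22 °C before imaging.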

Sequence	switch fluorescence ratio
GGTGAATGGG	1.01 ± 0.032
GGTGACGGGC	0.978 ± 0.045
GGTGAGATTA	0.9804 ± 0.0073
GGTGAGGGCA	0.99 ± 0.015
GGTGAGGGTG	1.1 ± 0.013
GGTGATACAG	1.003 ± 0.0051
GGTGATAGGA	0.98 ± 0.034
GGTGATATGT	0.997 ± 0.018
GGTGATCCTG	0.977 ± 0.028
GGTGATCTTT	0.965 ± 0.044
GGTGCAGGGG	1.11 ± 0.023
GGTGCAGGTG	1.74 ± 0.59
GGTGCATGGC	1.04 ± 0.04
GGTGCCGGGG	1.02 ± 0.042
GGTGCCGGTT	0.997 ± 0.054
GGTGCCTGTT	1 ± 0.011
GGTGCGCCTT	0.958 ± 0.013
GGTGCGGGTG	1.03 ± 0.051
GGTGCTAAGG	1.02 ± 0.021
GGTGCTGCTA	0.984 ± 0.019
GGTGCTTTGG	0.993 ± 0.046
GGTGCTTTTT	0.987 ± 0.023
GGTGGAAGGA	1.02 ± 0.029

Sequence	switch fluorescence ratio
GGTGGCAAAT	1.01 ± 0.013
GGTGGCCGGT	0.987 ± 0.021
GGTGGCGGAA	0.996 ± 0.037
GGTGGCGGGG	0.987 ± 0.019
GGTGGCTTGC	1.014 ± 0.0032
GGTGGGACGG	0.991 ± 0.039
GGTGGGAGGC	0.999 ± 0.059
GGTGGGATGC	1.02 ± 0.076
GGTGGGGAGC	1 ± 0.021
GGTGGGGTGC	1.01 ± 0.046
GGTGGGTGTC	0.974 ± 0.016
GGTGGGTTTG	1.03 ± 0.024
GGTGGTCAGC	1.012 ± 0.0049
GGTGGTCCCT	0.99 ± 0.04
GGTGGTGGCC	1.01 ± 0.023
GGTGGTTATC	1.01 ± 0.021
GGTGGTTATT	0.996 ± 0.014
GGTGGTTTGG	1.023 ± 0.0045
GGTGGTTTTG	0.985 ± 0.037
GGTGTAATGG	1.04 ± 0.04
GGTGTAGAGG	1.012 ± 0.0022
GGTGTAGCTA	0.981 ± 0.061
GGTGTAGCTT	1.014 ± 0.0083

Sequence	switch fluorescence ratio
GGTGTAGGT	0.986 ± 0.022
GGTGTATGGT	0.985 ± 0.018
GGTGTGGCTC	1 ± 0.044
GGTGTGTGGG	1.01 ± 0.033
GGTGTTAAGA	1.01 ± 0.0043
GGTGTTAGGC	1.01 ± 0.032
GGTGTTATGC	1.01 ± 0.015
GGTGTTCATG	0.974 ± 0.024
GGTGTTCTGT	0.9665 ± 0.0089
GGTGTTGCAA	1.02 ± 0.016
GGTGTTGTGG	0.9911 ± 0.0093
GGTGTTGTTC	1.01 ± 0.014
GGTGTTTAAT	0.979 ± 0.016
GGTGTTTGGA	0.986 ± 0.0099
GGTGTTTGTA	1.005 ± 0.0094
GGTGTTTTAT	1.02 ± 0.015
GGTGTTTTCA	0.988 ± 0.026
GGTGTTTTG	0.9847 ± 0.007
GGTTAAAAGG	1 ± 0.032
GGTTAAACTT	1.02 ± 0.012
GGTTAAATTA	1.01 ± 0.013
GGTTAACGTC	1.03 ± 0.15
GGTTAAGCCG	0.996 ± 0.017

Sequence	switch fluorescence ratio
GGTTAAGCCT	1.05 ± 0.043
GGTTAAGTCT	0.946 ± 0.053
GGTTAATCGT	0.98228 ± 0.00062
GGTTACGTAG	1.045 ± 0.0078
GGTTACTGTT	1.08 ± 0.096
GGTTACTTTA	1.07 ± 0.064
GGTTAGAAGG	0.96 ± 0.031
GGTTAGATAG	1.01 ± 0.035
GGTTAGGGGC	0.995 ± 0.04
GGTTAGTAGG	0.986 ± 0.021
GGTTAGTATT	0.987 ± 0.021
GGTTAGTGTC	1.05 ± 0.047
GGTTAGTGTG	0.997 ± 0.015
GGTTATAGCT	1.02 ± 0.034
GGTTATCCGG	1.01 ± 0.032
GGTTATCGAT	0.999 ± 0.0014
GGTTATGCTG	1.03 ± 0.1
GGTTATGGGG	0.985 ± 0.027
GGTTCAAGGG	0.984 ± 0.02
GGTTCAGGTA	0.9876 ± 0.0062
GGTTCAGTG	0.9936 ± 0.0079
GGTTCCTTA	0.994 ± 0.045
GGTTCGGGAA	0.9965 ± 0.0022

Sequence	switch fluorescence ratio
GGTTCGGGGG	0.997 ± 0.037
GGTTCGGTTC	1.02 ± 0.017
GGTTCGTATA	1.01 ± 0.017
GGTTCGTTGG	0.993 ± 0.013
GGTTCTAAGA	0.98129 ± 0.00096
GGTTCTACTC	1.02 ± 0.013
GGTTCTATGG	0.99441 ± 3.1e-05
GGTTCTGATC	0.981 ± 0.01
GGTTCTTATA	1.046 ± 0.008
GGTTGAACCG	1.01 ± 0.06
GGTTGAAGTG	0.974 ± 0.012
GGTTGACGGG	0.985 ± 0.055
GGTTGAGGAG	1.04 ± 0.074
GGTTGAGTGG	1 ± 0.036
GGTTGATATG	1 ± 0.041
GGTTGATTTA	1.036 ± 0.0037
GGTTGCAGAG	1.01 ± 0.024
GGTTGCAGGG	1.01 ± 0.011
GGTTGCATTA	0.9923 ± 0.0019
GGTTGCGTCT	0.9613 ± 0.003
GGTTGGAAAG	0.9919 ± 0.0013
GGTTGGCATA	0.984 ± 0.016
GGTTGGCCCC	1.02 ± 0.019

Sequence	switch fluorescence ratio
GGTTGGGTGT	1.02 ± 0.027
GGTTGGTATT	1.001 ± 0.0099
GGTTGTAGTT	0.963 ± 0.016
GGTTGTATGG	0.975 ± 0.012
GGTTGTCCTA	0.978 ± 0.023
GGTTGTCTGC	0.968 ± 0.055
GGTTGTGGCA	1.03 ± 0.011
GGTTGTTACG	0.987 ± 0.033
GGTTGTTCCG	0.9973 ± 0.0073
GGTTTAAGTC	1.06 ± 0.029
GGTTTACAGC	0.979 ± 0.012
GGTTTACGGC	1 ± 0.016
GGTTTACTG	1.03 ± 0.035
GGTTTAGAGC	1.01 ± 0.02
GGTTTAGGCA	0.999 ± 0.027
GGTTTCCATT	1 ± 0.054
GGTTTCCCTG	0.9984 ± 0.0033
GGTTTCCTTT	0.992 ± 0.021
GGTTTCGACG	1.01 ± 0.011
GGTTTCGGCG	0.966 ± 0.04
GGTTTCTAGG	0.99311 ± 0.00018
GGTTTCTCCG	1.46 ± 0.017
GGTTTCTGAA	0.998 ± 0.02

Sequence	switch fluorescence ratio
GGTTTCTTCG	1.09 ± 0.1
GGTTTCTTGA	1.02 ± 0.021
GGTTTGACGG	1.01 ± 0.053
GGTTTGATGT	0.975 ± 0.023
GGTTTGCAGC	0.975 ± 0.021
GGTTTGTCGT	0.957 ± 0.04
GGTTTGTGTG	0.991 ± 0.018
GGTTTTAAAT	0.98195 ± 0.00028
GGTTTTAGCT	0.997 ± 0.016
GGTTTTAGGG	0.996 ± 0.039
GGTTTTAGTG	0.967 ± 0.037
GGTTTTATGC	0.985 ± 0.0053
GGTTTTATGG	0.988 ± 0.027
GGTTTTATTG	0.987 ± 0.044
GGTTTTATTT	0.984 ± 0.068
GGTTTTCGTT	0.99 ± 0.021
GGTTTTCTCG	1.03 ± 0.023
GGTTTTCTGG	1.02 ± 0.027
GGTTTTGATC	0.972 ± 0.047
